This note sets out measurements from patent US20070054848A1, “Composition and method for nerve regeneration” (priority 2003, published 2007).

One experiment deals with nerve regeneration. In words: Similar experiments with modified amino acid agents (Example 2-8). On the procedure:
Similar experiments were carried out using Pep5 in which alanine was added to the C terminus of the sequence (SEQ ID NO: 2), antibodies for the extracellular domain of p75, and p75 in which alanine was replaced with valine at amino acid 423 in positions 273-427 of SEQ ID NO: 4.

Experiment [1] relates to RhoA complexed with Rho GDI. Briefly: In vitro nucleotide exchange assay. The format is biochemical. The settings on record: high Mg2+ concentrations; 90 nM Dbl. The protocol:
Lipid-modified RhoA was purified from yeast membranes as described (Forget, M. A., Desrosiers, R. R., Gingras, D. & Beliveau, R., Biochem. J. 361, 243-54(2002)). [^3H]GDP- or GDP-RhoA complexed with Rho GDI was obtained by first incubating GDP-RhoA with or without [^3H]GDP, followed by incubation with Rho GDI for 30 min, as described previously (Takahashi, K. et al., J. Biol. Chem. 272, 23371-23375 (1997)). The sample, subjected to gel filtration, was equilibrated with 20 mM Tris-HCl (pH 7.5) containing 5 mM MgCl2, 1 mM dithiothreitol and 0.1% CHAPS. The GDP dissociation and GTP binding assays were carried out by the filter binding method as described previously (Hart, M. J., Eva, A., Evans, T., Aaronson, S. A. & Cerione, R. A., Nature 354, 311-314 (1991)). In the [^3H]GDP dissociation assay, 50 nM of the complex was incubated for 20 min with various concentrations of GST-fused proteins in a reaction mixture (50 μl) containing 30 mM Tris-HCl (pH 7.5), 5 mM or 0.5 μM MgCl2, 1 (for low Mg) or 10 (for high Mg) mM EDTA, 0.1 mM GTP, 1 mM dithiothreitol, 0.12% CHAPS and 0.2 mg/ml bovine serum albumin. In the [^35S] GTPγS binding assay, the complex was incubated as described above except that 1 μM [^35S] GTPγS was used instead of 0.1 mM GTP. At the indicated time, an aliquot of the reaction sample was removed, and passed through nitrocellulose filters (IPVH 000, Millipore). […]

B1: p75 in which alanine was replaced with valine at amino acid 423: p75 with alanine replaced with valine at amino acid 423 in positions 273-427 of SEQ ID NO: 4 (protein, listed as Homo sapiens)
chain: KRWNSCKQNKQGANSRPVNQTPPPEGEKLHSDSGISVDSQSLHDQQPHTQTASGQALKGDGGLYSSLPPAKREEVEKLLNGSAGDTWRHLAGELGYQPEHIDSFTHEACPVRALLASWATQDSATLDALLAALRRIQRADLVESLCSESTVTSPV
B1: the nerve regeneration result in the experiment on nerve regeneration is on record as “nerve regeneration was similarly observed”.

B2: p75 ICD: intracellular domain (ICD) of p75, GST-fused (protein)
chain: KRWNSCKQNKQGANSRPVNQTPPPEGEKLHSDSGISVDSQSLHDQQTHTQTASGQALKGDGNLYSSLPLTKREEVEKLLNGDTWRHLAGELGYQPEHIDSFTHEACPVRALLASWGAQDSATLDALLAALRRIQRADIVESLCSESTATSPV
modifications: left off: a dimerising Fc or GST
notes: intracellular domain (ICD) of p75, GST-fused
In the case of B2, the “Dbl stimulated dissociation of GDP from GDP-RhoA complexed with Rho GDI” value in experiment [1] is on record as “showed the inhibitory effect to the same extent as p75 HD”.
